Measurements reported in paper PMC3921101.

Target: L-selectin (CD62L) on Jurkat T cells (human (endogenous in Jurkat)) (UniProt P14151)
Experiment: flow cytometry on cells

Chain of UniProt P14151 (P14151 39-372): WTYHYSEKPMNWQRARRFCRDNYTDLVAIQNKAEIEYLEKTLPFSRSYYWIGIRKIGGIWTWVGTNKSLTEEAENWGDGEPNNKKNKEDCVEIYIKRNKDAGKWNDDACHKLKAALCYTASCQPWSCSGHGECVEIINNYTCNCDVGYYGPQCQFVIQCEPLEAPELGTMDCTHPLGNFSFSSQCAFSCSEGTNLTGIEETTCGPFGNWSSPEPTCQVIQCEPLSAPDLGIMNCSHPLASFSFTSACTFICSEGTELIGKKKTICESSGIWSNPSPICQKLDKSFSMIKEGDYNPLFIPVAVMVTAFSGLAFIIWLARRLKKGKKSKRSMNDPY

fold binding (MFI) with DREG-55 mAb, relative to the DREG-200 mAb sample [fold] | Substance
1.4 | Human E-selectin-Fc chimera (from UniProt P16581 22-556) (Fc fusion)
1.6 | Human PSGL-1-Fc chimera (from UniProt Q14242 42-320) (Fc fusion)
